Measured values reported in patent publication US20260184748A1 (University of Pennsylvania, published 2026).
Where no end group is shown, it is not given here.

Legend:
Assay in all cases: cell-based or functional assay
HTR1E = HTR1E (UniProt P28566 1-365)
GPR119 = biological target: T1, GPR119 (UniProt Q8TDV5 1-335)
T1 sequence (looked up): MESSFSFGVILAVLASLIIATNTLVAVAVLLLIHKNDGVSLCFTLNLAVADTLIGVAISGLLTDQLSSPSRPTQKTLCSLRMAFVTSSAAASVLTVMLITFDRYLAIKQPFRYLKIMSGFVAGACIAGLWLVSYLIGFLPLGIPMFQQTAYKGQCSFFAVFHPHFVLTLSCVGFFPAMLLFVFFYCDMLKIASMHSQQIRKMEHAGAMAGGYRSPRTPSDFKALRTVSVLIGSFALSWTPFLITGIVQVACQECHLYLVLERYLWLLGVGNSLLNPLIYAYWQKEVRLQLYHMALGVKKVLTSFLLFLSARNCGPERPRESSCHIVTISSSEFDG

NPY1R = biological target: T2, NPY1R (UniProt P25929 1-384)
T2 sequence (looked up): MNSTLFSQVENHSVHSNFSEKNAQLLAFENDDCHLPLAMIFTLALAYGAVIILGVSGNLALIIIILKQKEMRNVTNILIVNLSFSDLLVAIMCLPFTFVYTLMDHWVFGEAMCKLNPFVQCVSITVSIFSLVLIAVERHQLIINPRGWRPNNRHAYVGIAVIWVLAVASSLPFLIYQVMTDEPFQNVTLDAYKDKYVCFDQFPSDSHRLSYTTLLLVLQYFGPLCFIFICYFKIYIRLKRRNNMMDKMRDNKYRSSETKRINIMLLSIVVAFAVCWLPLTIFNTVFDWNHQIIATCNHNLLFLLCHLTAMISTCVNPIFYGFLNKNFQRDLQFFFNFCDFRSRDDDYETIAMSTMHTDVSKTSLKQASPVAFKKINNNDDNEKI

SCTR = SCTR (UniProt P47872 23-440)
MCHR2 = MCHR2 (UniProt Q969V1 1-340)
OPRM1 = OPRM1 (UniProt P35372 1-400)
VIPR1 = biological target: T3, VIPR1 (UniProt P32241 31-457)
T3 sequence (looked up): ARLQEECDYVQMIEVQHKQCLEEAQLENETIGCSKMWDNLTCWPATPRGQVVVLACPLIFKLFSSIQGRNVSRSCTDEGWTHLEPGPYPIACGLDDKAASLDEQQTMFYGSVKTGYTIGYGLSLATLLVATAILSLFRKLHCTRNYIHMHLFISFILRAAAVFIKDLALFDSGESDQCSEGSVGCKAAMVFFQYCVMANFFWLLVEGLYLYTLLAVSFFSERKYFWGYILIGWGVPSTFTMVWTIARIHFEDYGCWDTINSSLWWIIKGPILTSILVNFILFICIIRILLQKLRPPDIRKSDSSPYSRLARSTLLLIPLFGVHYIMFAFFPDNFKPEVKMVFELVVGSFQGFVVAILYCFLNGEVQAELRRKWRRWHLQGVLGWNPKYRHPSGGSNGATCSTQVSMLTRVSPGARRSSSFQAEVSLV

EDNRA = biological target: T4, EDNRA (UniProt P25101 21-427)
T4 sequence (looked up): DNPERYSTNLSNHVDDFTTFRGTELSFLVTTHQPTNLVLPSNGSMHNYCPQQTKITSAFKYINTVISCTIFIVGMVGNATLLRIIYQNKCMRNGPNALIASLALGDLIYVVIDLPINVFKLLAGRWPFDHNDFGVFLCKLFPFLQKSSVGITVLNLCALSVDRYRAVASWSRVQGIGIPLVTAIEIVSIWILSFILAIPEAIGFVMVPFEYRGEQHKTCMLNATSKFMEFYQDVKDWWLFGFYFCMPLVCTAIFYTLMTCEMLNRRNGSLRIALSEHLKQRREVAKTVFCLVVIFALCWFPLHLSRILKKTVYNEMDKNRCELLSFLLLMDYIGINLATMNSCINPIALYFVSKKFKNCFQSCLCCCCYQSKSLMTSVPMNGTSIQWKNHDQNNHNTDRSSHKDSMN

NTSR1 = NTSR1 (UniProt P30989 1-418)
CALCR = biological target: T5, CALCR (UniProt P30988 25-474, limits assumed)
T5 sequence (looked up): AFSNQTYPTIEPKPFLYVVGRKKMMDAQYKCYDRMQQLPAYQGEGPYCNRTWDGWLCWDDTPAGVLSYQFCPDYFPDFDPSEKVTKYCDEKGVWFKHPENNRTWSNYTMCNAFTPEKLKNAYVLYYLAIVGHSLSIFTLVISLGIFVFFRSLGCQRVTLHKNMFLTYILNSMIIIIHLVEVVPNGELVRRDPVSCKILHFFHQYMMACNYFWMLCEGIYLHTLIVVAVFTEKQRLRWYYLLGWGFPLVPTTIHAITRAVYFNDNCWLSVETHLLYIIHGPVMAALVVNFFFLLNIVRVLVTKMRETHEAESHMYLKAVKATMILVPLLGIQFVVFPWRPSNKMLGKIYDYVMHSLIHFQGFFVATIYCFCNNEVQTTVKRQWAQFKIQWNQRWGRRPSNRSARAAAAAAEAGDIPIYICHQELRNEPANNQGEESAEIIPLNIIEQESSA

ADRA2C = biological target: T6, ADRA2C (UniProt P18825 1-462)
T6 sequence (looked up): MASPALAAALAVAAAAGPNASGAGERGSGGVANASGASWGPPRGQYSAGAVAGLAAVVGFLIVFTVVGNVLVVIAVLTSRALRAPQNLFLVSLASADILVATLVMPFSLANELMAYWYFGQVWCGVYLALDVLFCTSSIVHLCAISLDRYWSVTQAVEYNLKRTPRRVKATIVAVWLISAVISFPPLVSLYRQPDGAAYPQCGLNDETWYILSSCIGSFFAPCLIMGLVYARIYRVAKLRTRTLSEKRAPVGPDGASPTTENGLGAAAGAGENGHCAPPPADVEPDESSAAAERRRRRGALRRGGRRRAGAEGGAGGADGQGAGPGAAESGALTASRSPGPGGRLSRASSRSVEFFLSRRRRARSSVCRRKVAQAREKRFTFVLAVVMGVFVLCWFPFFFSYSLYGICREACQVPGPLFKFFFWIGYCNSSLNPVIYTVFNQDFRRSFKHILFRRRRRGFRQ

PTGFR = PTGFR (UniProt P43088 1-359)
Sequence of PTGFR (P43088 whole entry): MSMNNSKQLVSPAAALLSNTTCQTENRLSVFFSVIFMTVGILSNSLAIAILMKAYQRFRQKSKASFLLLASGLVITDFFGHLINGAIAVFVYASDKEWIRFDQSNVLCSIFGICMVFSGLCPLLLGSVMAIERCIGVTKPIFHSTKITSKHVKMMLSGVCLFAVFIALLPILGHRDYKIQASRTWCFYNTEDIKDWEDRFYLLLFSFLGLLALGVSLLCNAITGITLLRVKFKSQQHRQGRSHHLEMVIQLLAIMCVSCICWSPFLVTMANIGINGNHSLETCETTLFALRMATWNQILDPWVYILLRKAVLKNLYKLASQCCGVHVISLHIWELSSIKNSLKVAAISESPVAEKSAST

Sequence of OPRM1 (P35372 whole entry): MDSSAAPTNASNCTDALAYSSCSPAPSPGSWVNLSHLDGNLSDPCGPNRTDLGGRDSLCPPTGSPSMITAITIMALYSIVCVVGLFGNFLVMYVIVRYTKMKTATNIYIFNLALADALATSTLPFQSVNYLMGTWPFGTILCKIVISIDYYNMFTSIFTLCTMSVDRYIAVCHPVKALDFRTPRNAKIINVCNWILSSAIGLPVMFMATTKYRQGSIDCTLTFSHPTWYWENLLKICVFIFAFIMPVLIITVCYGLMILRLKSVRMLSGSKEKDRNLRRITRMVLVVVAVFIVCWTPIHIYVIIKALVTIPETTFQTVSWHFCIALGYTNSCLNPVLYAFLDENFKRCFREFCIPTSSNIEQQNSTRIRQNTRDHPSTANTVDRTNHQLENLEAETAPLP
Sequence of MCHR2 (Q969V1 whole entry): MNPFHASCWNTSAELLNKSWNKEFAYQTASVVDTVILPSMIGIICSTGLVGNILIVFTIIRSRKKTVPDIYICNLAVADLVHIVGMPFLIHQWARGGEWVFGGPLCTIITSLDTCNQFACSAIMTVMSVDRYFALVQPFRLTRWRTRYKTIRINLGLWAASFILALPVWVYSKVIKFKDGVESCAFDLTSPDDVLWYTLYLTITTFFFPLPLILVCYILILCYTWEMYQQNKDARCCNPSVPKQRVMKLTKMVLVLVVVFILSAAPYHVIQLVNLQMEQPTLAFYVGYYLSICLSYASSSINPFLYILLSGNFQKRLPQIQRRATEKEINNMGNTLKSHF
Sequence of SCTR (P47872 23-440 limits assumed): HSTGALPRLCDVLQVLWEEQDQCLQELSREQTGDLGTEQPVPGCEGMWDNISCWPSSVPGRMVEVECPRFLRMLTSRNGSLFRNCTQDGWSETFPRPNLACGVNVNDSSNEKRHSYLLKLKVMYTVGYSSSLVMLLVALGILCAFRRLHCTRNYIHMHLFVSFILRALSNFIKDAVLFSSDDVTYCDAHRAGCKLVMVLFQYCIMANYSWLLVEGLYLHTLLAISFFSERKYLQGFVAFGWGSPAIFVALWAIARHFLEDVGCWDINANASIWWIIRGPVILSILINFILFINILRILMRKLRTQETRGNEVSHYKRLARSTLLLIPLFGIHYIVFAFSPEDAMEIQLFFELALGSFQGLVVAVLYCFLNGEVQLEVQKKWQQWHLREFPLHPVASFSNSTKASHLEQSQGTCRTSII
Sequence of HTR1E (P28566 whole entry): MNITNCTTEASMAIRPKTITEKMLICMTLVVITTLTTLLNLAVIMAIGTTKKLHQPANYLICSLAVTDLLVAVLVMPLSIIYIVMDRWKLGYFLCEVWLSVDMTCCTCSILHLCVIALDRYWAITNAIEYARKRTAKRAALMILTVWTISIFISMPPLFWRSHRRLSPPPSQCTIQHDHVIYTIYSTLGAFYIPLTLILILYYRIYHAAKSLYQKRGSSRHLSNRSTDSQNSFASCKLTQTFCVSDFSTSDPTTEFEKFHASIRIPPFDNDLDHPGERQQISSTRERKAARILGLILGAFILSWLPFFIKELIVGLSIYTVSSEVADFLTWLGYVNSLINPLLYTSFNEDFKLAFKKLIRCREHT
Sequence of NTSR1 (P30989 whole entry): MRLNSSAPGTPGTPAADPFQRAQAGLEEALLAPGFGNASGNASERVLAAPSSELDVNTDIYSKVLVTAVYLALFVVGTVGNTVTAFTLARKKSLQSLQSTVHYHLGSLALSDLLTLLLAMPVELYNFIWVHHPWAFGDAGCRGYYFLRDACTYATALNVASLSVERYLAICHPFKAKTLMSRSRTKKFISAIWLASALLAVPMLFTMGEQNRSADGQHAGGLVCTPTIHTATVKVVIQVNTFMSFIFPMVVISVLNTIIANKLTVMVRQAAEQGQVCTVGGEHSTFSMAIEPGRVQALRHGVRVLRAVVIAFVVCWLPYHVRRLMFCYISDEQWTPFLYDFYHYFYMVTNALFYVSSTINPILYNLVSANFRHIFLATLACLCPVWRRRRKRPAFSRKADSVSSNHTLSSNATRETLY

QATVGDVNTDRPGLLDLK (also: synthesised on Rink amide resin, C-terminal amide not given here outright) [octadecaneuropeptide (ODN)]
% Activity, arrestin, antagonist mode, 2.5 uM (HTR1E): -3.8%
% Activity, arrestin, antagonist mode, 2.5 uM (GPR119): -1%
% Activity, arrestin, antagonist mode, 2.5 uM (NPY1R): -2.7%
% Activity, arrestin, antagonist mode, 2.5 uM (SCTR): 7.7%
% Activity, arrestin, antagonist mode, 2.5 uM (MCHR2): -10.5%
% Activity, arrestin, antagonist mode, 2.5 uM (OPRM1): -21.1%
% Activity, arrestin, antagonist mode, 2.5 uM (VIPR1): -11.6%
% Activity, arrestin, antagonist mode, 2.5 uM (EDNRA): 2.5%
% Activity, arrestin, antagonist mode, 2.5 uM (NTSR1): -21.4%
% Activity, arrestin, antagonist mode, 2.5 uM (CALCR): -22.3%
% Activity, arrestin, antagonist mode, 2.5 uM (ADRA2C): -26.4%
% Activity, arrestin, antagonist mode, 2.5 uM (PTGFR): -8.4%
